Source: patent US20050118674A1, “Engineering of Controlled Deamidation Rates in Peptides, Proteins, and Similar Structures” (priority 2003, published 2005)
Where no end group is shown, it is not given here.

Assay: First-order nonenzymatic deamidation of pentapeptides in Tris buffer
Assay type: physicochemical
Settings: 0.15 M Tris HCl; for First-Order Deamidation Halftimes of GlyXxxAsnYyyGly: pH 7.4, 37.0° C., Asn pentapeptides; for First-Order Deamidation Halftimes of GlyXxxGlnYyyGly: pH 7.4, 37.0 ° C., Gln pentapeptides, 52 values measured, rest derived from surface fitting
Procedure, shortened: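 First-order deamidation rates determined for XxxAsnYyy and XxxGlnYyy pentapeptides in 0.15 M Tris buffer, pH 7.4, 37° C. Not all values were measured directly: several Asn rates were estimated and most Gln rates came from surface fitting.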

Substance | First-Order Deamidation Halftimes of GlyXxxAsnYyyGly | First-Order Deamidation Halftimes of GlyXxxGlnYyyGly
GlyHisAsnLysGly (GHNKG; printed: GlyHisAsnLysGly) | 50.2 days | 
GlyTyrAsnThrGly (GYNTG; printed: GlyTyrAsnThrGly) | 38.1 days | 
GlyHisGlnProGly (GHQPG; printed: GlyHisGlnProGly) |  | 11000 days
GlyProGlnProGly (GPQPG; printed: GlyProGlnProGly) |  | 8900 days
GlyPheGlnTrpGly (GFQWG; printed: GlyPheGlnTrpGly) |  | 16000 days
GlyGluGlnAlaGly (GEQAG; printed: GlyGluGlnAlaGly) |  | 7100 days
GlyTyrGlnLeuGly (GYQLG; printed: GlyTyrGlnLeuGly) |  | 7800 days
GlyLysAsnGluGly (GKNEG; printed: GlyLysAsnGluGly) | 72.5 days | 
GlyArgAsnValGly (GRNVG; printed: GlyArgAsnValGly) | 247 days | 
GlyHisAsnAmCysGly | 33.8 days | 
GlyLysGlnAspGly (GKQDG; printed: GlyLysGlnAspGly) |  | 5900 days
GlyGluGlnGlyGly (GEQGG; printed: GlyGluGlnGlyGly) |  | 750 days
GlyProGlnArgGly (GPQRG; printed: GlyProGlnArgGly) |  | 6400 days
GlySerGlnProGly (GSQPG; printed: GlySerGlnProGly) |  | 10000 days
GlyMetGlnCysGly (GMQCG; printed: GlyMetGlnCysGly) |  | 900 days
GlyAspAsnGluGly (GDNEG; printed: GlyAspAsnGluGly) | 46.8 days | 
GlySerAsnProGly (GSNPG; printed: GlySerAsnProGly) | 7060 days | 
GlyCysAsnThrGly (GCNTG; printed: GlyCysAsnThrGly) | 48.7 days | 
GlyAspAsnArgGly (GDNRG; printed: GlyAspAsnArgGly) | 87.2 days | 
GlyThrGlnSerGly (GTQSG; printed: GlyThrGlnSerGly) |  | 4200 days
GlyCysGlnGlyGly (GCQGG; printed: GlyCysGlnGlyGly) |  | 560 days
GlyGluGlnHisGly (GEQHG; printed: GlyGluGlnHisGly) |  | 2500 days
GlyValGlnMetGly (GVQMG; printed: GlyValGlnMetGly) |  | 4200 days
GlyThrAsnAlaGly (GTNAG; printed: GlyThrAsnAlaGly) | 24.6 days | 
GlyThrAsnMetGly (GTNMG; printed: GlyThrAsnMetGly) | 47.6 days | 
GlyMetGlnHisGly (GMQHG; printed: GlyMetGlnHisGly) |  | 4400 days
GlyTyrAsnTyrGly (GYNYG; printed: GlyTyrAsnTyrGly) | 70.6 days | 

Substance | First-Order Deamidation Halftimes of GlyXxxAsnYyyGly | First-Order Deamidation Halftimes of GlyXxxGlnYyyGly
GlyHisGlnPheGly (GHQFG; printed: GlyHisGlnPheGly) |  | 8600 days
GlyPheGlnSerGly (GFQSG; printed: GlyPheGlnSerGly) |  | 5900 days
GlyProGlnThrGly (GPQTG; printed: GlyProGlnThrGly) |  | 4600 days
GlyAspGlnAlaGly (GDQAG; printed: GlyAspGlnAlaGly) |  | 7100 days
GlyValGlnTrpGly (GVQWG; printed: GlyValGlnTrpGly) |  | 12000 days
GlyLeuAsnLeuGly (GLNLG; printed: GlyLeuAsnLeuGly) | 155 days | 
GlyAmCysAsnArgGly (CNRG; not fully specified (N-terminus); printed as GlyAmCysAsnArgGly) | 58.8 days | 
GlyLeuGlnArgGly (GLQRG; printed: GlyLeuGlnArgGly) |  | 7200 days
GlyThrAsnIleGly (GTNIG; printed: GlyThrAsnIleGly) | 279 days | 
GlyIleGlnMetGly (GIQMG; printed: GlyIleGlnMetGly) |  | 5100 days
GlyThrAsnArgGly (GTNRG; printed: GlyThrAsnArgGly) | 51.2 days | 
GlyCysAsnProGly (GCNPG; printed: GlyCysAsnProGly) | 1550 days | 
GlyLysAsnThrGly (GKNTG; printed: GlyLysAsnThrGly) | 58.1 days | 
GlyThrGlnLeuGly (GTQLG; printed: GlyThrGlnLeuGly) |  | 5200 days
GlyLysAsnSerGly (GKNSG; printed: GlyLysAsnSerGly) | 15.6 days | 
GlyTyrGlnArgGly (GYQRG; printed: GlyTyrGlnArgGly) |  | 8100 days
GlyProAsnLysGly (GPNKG; printed: GlyProAsnLysGly) | 67.8 days | 
GlyThrAsnCysGly (GTNCG; printed: GlyThrAsnCysGly) | 55.5 days | 
GlyCysGlnLysGly (GCQKG; printed: GlyCysGlnLysGly) |  | 4400 days
GlyLeuGlnThrGly (GLQTG; printed: GlyLeuGlnThrGly) |  | 5300 days
GlyLeuGlnGlyGly (GLQGG; printed: GlyLeuGlnGlyGly) |  | 670 days
GlySerAsnAmCysGly | 41.3 days | 
GlyGlyGlnLeuGly (GGQLG; printed: GlyGlyGlnLeuGly) |  | 6200 days
GlyTrpAsnGluGly (GWNEG; printed: GlyTrpAsnGluGly) | 75.7 days | 
GlyHisGlnHisGly (GHQHG; printed: GlyHisGlnHisGly) |  | 7200 days
GlyTyrGlnMetGly (GYQMG; printed: GlyTyrGlnMetGly) |  | 5300 days
GlyLeuGlnPheGly (GLQFG; printed: GlyLeuGlnPheGly) |  | 8000 days

Substance | First-Order Deamidation Halftimes of GlyXxxAsnYyyGly | First-Order Deamidation Halftimes of GlyXxxGlnYyyGly
GlyGluGlnGluGly (GEQEG; printed: GlyGluGlnGluGly) |  | 8200 days
GlyGluAsnGluGly (GENEG; printed: GlyGluAsnGluGly) | 60.3 days | 
GlyLysGlnTyrGly (GKQYG; printed: GlyLysGlnTyrGly) |  | 8800 days
GlyProAsnHisGly (GPNHG; printed: GlyProAsnHisGly) | 12.8 days | 
GlyProGlnHisGly (GPQHG; printed: GlyProGlnHisGly) |  | 5200 days
GlySerAsnTrpGly (GSNWG; printed: GlySerAsnTrpGly) | 76.8 days | 
GlyHisGlnLysGly (GHQKG; printed: GlyHisGlnLysGly) |  | 4000 days
GlySerGlnArgGly (GSQRG; printed: GlySerGlnArgGly) |  | 7200 days
GlyAlaAsnAspGly (GANDG; printed: GlyAlaAsnAspGly) | 31.9 days | 
GlyThrGlnPheGly (GTQFG; printed: GlyThrGlnPheGly) |  | 6800 days
GlyTrpAsnThrGly (GWNTG; printed: GlyTrpAsnThrGly) | 38.9 days | 
GlyAlaGlnGlyGly (GAQGG; printed: GlyAlaGlnGlyGly) |  | 610 days
GlyCysAsnMetGly (GCNMG; printed: GlyCysAsnMetGly) | 64.5 days | 
GlyTrpAsnLeuGly (GWNLG; printed: GlyTrpAsnLeuGly) | 133 days | 
GlyAlaGlnAlaGly (GAQAG; printed: GlyAlaGlnAlaGly) |  | 5300 days
GlyPheAsnGluGly (GFNEG; printed: GlyPheAsnGluGly) | 62.4 days | 
GlyAlaGlnArgGly (GAQRG; printed: GlyAlaGlnArgGly) |  | 7200 days
GlyTrpAsnAspGly (GWNDG; printed: GlyTrpAsnAspGly) | 43.6 days | 
GlyCysAsnPheGly (GCNFG; printed: GlyCysAsnPheGly) | 73.9 days | 
GlyMetAsnTrpGly (GMNWG; printed: GlyMetAsnTrpGly) | 92.7 days | 
GlyAlaGlnTrpGly (GAQWG; printed: GlyAlaGlnTrpGly) |  | 14000 days
GlyValGlnAlaGly (GVQAG; printed: GlyValGlnAlaGly) |  | 4500 days
GlyPheAsnValGly (GFNVG; printed: GlyPheAsnValGly) | 203 days | 
GlyHisAsnCysGly (GHNCG; printed: GlyHisAsnCysGly) | 43.9 days | 
GlyCysAsnValGly (GCNVG; printed: GlyCysAsnValGly) | 229 days | 
GlyPheGlnGluGly (GFQEG; printed: GlyPheGlnGluGly) |  | 8100 days
